One may read the Km as the concentration of substrate that gives half-maximal velocity.

Among the data in publication PMC7460845, “A Fungal Ascorbate Oxidase with Unexpected Laccase Activity” (International Journal of Molecular Sciences, 2020) are Km values, retold here.

Substrate in series [1]: CCn1c(=NN=c2sc3cc(S(=O)(=O)O)ccc3n2CC)sc2cc(S(=O)(=O)O)ccc21
Kind of series: spectrophotometric ABTS oxidation, plate reader, Lineweaver-Burk. In kind it is biochemical, Aspergillus flavus. The settings on record: 0.1 M citrate buffer pH 3.4, 25 °C, 0.5 to 20 mM substrate, oxygen as co-substrate.

Substrate in the series “purified protein”: O=C1O[C@H]([C@@H](O)CO)C(O)=C1O
Kind of series: purified protein. In kind it is biochemical, Aspergillus flavus. The settings on record: pH 5.0, 30 °C, 0.05 to 1 mM substrate, oxygen as co-substrate.

B1: Af_AO1 (Aspergillus flavus NRRL3357) (protein)
chain: HLVLHDDSFQPDHILRVTAQDVNQACMDRYSVLINGSLPGPQLNIQEGKVNWIRVYNDMEDLNVTMHWHGLSAFTAPFSDGTPMASQWPIPPGHFFDYEVRPEVGYAGTYFYHSHVGFQALTAWGALIVESAQPSPYQYDEERIIALSDFFTKTDEEIENGLTSTNFTWSGETSAVLVNGQGRLATNATGSCKLAAISVEPGKTYRLRFIGATALSFVSISLESHDVLEIIEADGHYTKPVNTSYLQISSGQRYSVLLKAKTEAELQQAKSRQFYFQLTTMGRPTVLTTFAVLEYPSPTTTDLITVPVTPPLPVANITYGWLDYTLEPYYPDLDFPTVEEVTRRIIINVHQNISDRTVWLQNGYDWVETFPKSPYLVDIYAGTLDLDASYKRAIASGYAFDNQTRLFPAKMGEVLEIVWQNQGAVSNGGVENHPFHAHGRHFYDIGGGDGLYNLTENEARLKGTHPVIRDTTMLYAYRKTTTALEPSGWRAWRIRVTAAGVWMVHCHVLQHMLMGMQTAFAFGDQTAIKAQSGTPAEGYLTYGGSAYGNVTHFPPVKHFFN
notes: natural signal peptide removed, no tag; codon-optimized gene in pPicZalphaB, secreted from Pichia pastoris KM71H; model target 561 residues
Consider B1, for which the Michaelis-Menten constant (Km) in series [1] stood at 1890 ± 120 µM; in the series “purified protein”, 160 ± 30 µM.
